Numbering of substitutions follows the chain as printed.

The values below come from patent publication US20240156870A1 (NATIONAL RESEARCH COUNCIL OF CANADA, published 2024).

The labels stand for the following.
B1: NRC-sdAb032-H1 (VHH)
VHH: QVQLVESGGGLVQPGRSLRLSCSASGSISSISVMGWYRQAPGKGLELVARITSGGISNYVDSVKGRFTISRDSNSKNTLYLQMNSLRAEDTAVYYCYMYVHVGYWVDYWGQGTLVTVSS
notes: Humanized variant H1 of NRC-sdAb032
B2: NRC-sdAb033-H2 (VHH)
VHH: QVQLVESGGGVVQPGRSLRLSCAASESIDSIYVMQWYRQAPGKGLEVVATLTPGGGSYYPDSVKGRFTISRDNSKNTLYLQMNSLRAEDTAVYYCNAFHRLRGTHYWGQGTLVTVSS
notes: Humanized variant H2 of NRC-sdAb033
B3: NRC-sdAb033-H1 (VHH)
VHH: B2 VHH with G42E, E46D, D61E
notes: Humanized variant H1 of NRC-sdAb033
B4: NRC-sdAb028-H1 (VHH)
VHH: QVQLVESGGGVVQPGRSLRLSCTVSGSFFSRDAMGWHRQAPGKGLEMVAGISSGGLSNHAESVKGRFTISRDNSKNTLYLQMNSLRAEDTAVYYCSIYEDGVWTSWGQGTLVTVSS
notes: Humanized variant H1 of NRC-sdAb028
B5: NRC-sdAb022-Fc (Fc fusion)
chain: QVQLVESGGGLVQPGGSLKLSCAVSGFAFERNGVSWYRQAPGKQREFVAVISSGTTTYKDSVKGRFTISRDNTRNTAYLQMNNLKPEDTAVYYCNLVPPTPYWGQGTQVTVSS
notes: Bivalent VHH-human IgG1 Fc fusion from HEK293-6E cells; not shown: human IgG1 Fc
B6: NRC-sdAb028-Fc (Fc fusion)
chain: B4 VHH with Q1E, V11L, R16G, G44Q, L45R, L78V, S84N, R86K, A87P, L111Q
notes: as for B5
B7: NRC-sdAb033-Fc (Fc fusion)
chain: QVQLVESGGGLVQPGGSLRLSCAASESIDSIYVMQWYRQAPEKPRDVVATLTPGGGSYYPEAVLGRFTISRDDAKNTVYLQMNSLKPEDTAVYYCNAFHRLRGTHYWGQGTQVTVSS
notes: as for B5
B8: NRC-sdAb026 (VHH)
VHH: QVQLVESGGALVQPGGSLRLSCSASGVIFGINTLAWHRQAPGKEREWVALISNAGSTKYAGSVKGRFTISRDNDKNTVYLQMDSLKPEDTAVYYCNYVPPSPAWGQGTQVTVSS
notes: Monomeric llama VHH; also called EGFR6; not shown: C-terminal c-Myc and 6xHis tags
B9: NRC-sdAb024 (VHH)
VHH: QVQLVESGGGLVQPGGSLRLSCAASGSSLYINAMTWYRQAPGEQREFVAIISRGGDTKYSDSVKGRFSISIDNAKNTVYLQMNSLKAEDTAVYYCNAVPPFPNWGQGTQVTVSS
notes: Monomeric llama VHH; also called EGFR4; not shown: C-terminal c-Myc and 6xHis tags
B10: NRC-sdAb025 (VHH)
VHH: B9 VHH with Y30T, E43D, Q44E, I51V, S52Y, D56G, S60A
notes: Monomeric llama VHH; also called EGFR5; not shown: C-terminal c-Myc and 6xHis tags
B11: NRC-sdAb023 (VHH)
VHH: QVQLVESGGGLVQPGGSLRLSCTASGIIFSRNGVSWYRQAPGKEREFVAVITLSGTTTYKDSVKGRFTISRDNTRNTGYLQMNNLKPEDTAVYYCNLVPPTSYWGQGTQVTVSS
notes: Monomeric llama VHH; also called EGFR3; not shown: C-terminal c-Myc and 6xHis tags

The target of one test is T1, human EGFR-Fc fusion protein (human, UniProt P00533 25-645).
T1 construct: Bought; not shown: Fc part of the bought fusion
The test is described as follows: SPR, VHH over human EGFR-Fc.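 Also: Single-cycle kinetics on Biacore T200 at 25 °C in HBS-EP, monomeric VHHs at 0.6–50 nM flowed over immobilized EGFR, 180 s association, 600 s dissociation, ethanolamine-blocked reference cell.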 In general terms: In SPR one partner is held on a chip, and binding of the other changes the refractive index at the surface.
As a reminder, the Kd is the constant that tells how readily two partners part at equilibrium. The koff is the first-order rate constant of dissociation. The kon is the rate constant with which the complex forms. As to B1, binding was put at a Kd of 16.6 nM, the koff came to 0.01 s⁻¹ and the kon amounted to 620000 M⁻¹ s⁻¹.
As for B2, binding was characterised by a dissociation constant (Kd) of 1.4 nM, the koff was 0.00026 s⁻¹ and the association rate constant (kon) is 200000 M⁻¹ s⁻¹.
On to B3, for which the Kd stood at 1.7 nM, the koff was 0.00022 s⁻¹ and the kon was 130000 M⁻¹ s⁻¹.
B4: binding was characterised by a dissociation constant (Kd) of 6.2 nM, the koff is 0.00058 s⁻¹ and the on-rate (kon) is 93000 M⁻¹ s⁻¹.

A further test deals with T2, human EGFR, native, on the cell surface (human, UniProt P00533 25-1210).
T2 construct: MCF7 is EGFR-low and serves as low-expression control; also called native cell-surface EGFR
The test is described as follows: Mirrorball microplate cytometry, adherent MDA-MB-468 cells.
A word on the EC50: it is the concentration needed to bring the measured effect to its halfway point. Read a low EC50 as a more potent agent. Take EG2-Fc (Fc fusion): the EC50 was determined as 279 nM.
Same read-out and setting: the result for B5 reads 67 nM.
Still for that read-out and setting: the result for B6 reads 86 nM; that for B7, 49 nM.

A further test addresses recombinant human EGFRvIII ectodomain (human) (UniProt P00533). The test can be described thus: SPR multi-cycle, VHH over amine-coupled EGFRvIII ectodomain.
For the molecule B8, the Kd turned out to be 25 nM, the koff was 0.0068 s⁻¹ and the kon was determined as 270000 M⁻¹ s⁻¹.
For the molecule B9, the Kd turned out to be 4.9 nM, the koff was determined as 0.0009 s⁻¹ and the kon was 180000 M⁻¹ s⁻¹.
On to B10, for which the Kd turned out to be 2.8 nM, the koff was determined as 0.00071 s⁻¹ and the kon is 260000 M⁻¹ s⁻¹.
Regarding B11, the Kd was 19.4 nM.

In another test the target is T3, recombinant 6xHis-tagged human EGFR ectodomain (human, UniProt P00533 25-645).
T3 construct: extracellular domain; Bought; also called recombinant human EGFR; EGFR extracellular domain; not shown: 6xHis tag
The test can be described thus: SPR multi-cycle, VHH over amine-coupled EGFR ectodomain.
As to B8, the Kd is 15.4 nM, the koff is 0.0056 s⁻¹ and the kon worked out at 360000 M⁻¹ s⁻¹.
Taken in the same sequence, the figures for B9 were 2.9 nM, 0.00073 s⁻¹ and 250000 M⁻¹ s⁻¹.
As to B10, the dissociation constant Kd came to 1.7 nM, the off-rate (koff) worked out at 0.00059 s⁻¹ and the kon came out at 360000 M⁻¹ s⁻¹.
Taken in the same sequence, the figures for B11 were 12.6 nM, 0.0057 s⁻¹ and 460000 M⁻¹ s⁻¹.
